The target in this assay is U6, a member of the malonate semialdehyde decarboxylase (MSAD)-like subgroup of the tautomerase superfamily. As to the kind of experiment: native MS.

What is called stoichiometry N is a count of units in the complex or per binding partner. As for “U6, a member of the malonate semialdehyde decarboxylase (MSAD)-like subgroup of the tautomerase superfamily (enzyme)”, the stoichiometry N was found to be 3.

The values are drawn from PMC9484798.
